Test results taken from publication PMC7530023.

Biological target: unmodified (unphosphorylated) recombinant tau, human 1N4R isoform (human)
Test: thioflavin S fluorescence aggregation assay

“unmodified (unphosphorylated) recombinant tau, human 1N4R isoform (natural protein)” gave a net increase of ThS fluorescence (9 μM tau) (units of ThS fluorescence) of 41 and a net increase of ThS fluorescence (18 μM tau) (units of ThS fluorescence) of 54.
